In test [1] the target is Human Semaphorin3A-Fc (R&D Systems), TPP-13211 (human). Nature of the test: cell-based or functional assay.
Test [2] has as its target T1, Human Semaphorin3A-Fc (R&D Systems), TPP-13211 (human).
T1 construct: R&D Systems 1250-S3; also called recombinant human Sema3A-Fc chimera
Nature of the test: ELISA, coated Sema3A-Fc, antibody 0.00015-10 ug/ml. How it is done: For the assessment of binding selectivity to Sema3A vs Sema3G, 1 nM recombinant human Sema3A-Fc chimera (R&D Systems) or recombinant human GST—Sema3G (Abnova) were coated on Maxisorb plates, incubated with antibodies in a dose-response curve from 0.00015-10 μg/ml, and the binding of antibodies quantified using HRP coupled anti-human antiserum and chemiluminescent substrate.
For orientation: An ELISA detects its analyte on a solid surface through an enzyme-linked reagent.

Test [3] deals with T1, Human Semaphorin3A-Fc (R&D Systems), …. Nature of the test: competition ELISA on coated TPP-13211, competitor biotinylated TPP-15370. The method, then: For screening in a competition ELISA setup, human Sema3a (TPP-13211) was coated onto 384-well plates (Greiner bio-one, 781077) with a concentration of 0.5 μg/ml in coating buffer (Carbonate-Basis pH 9.6, Candor 121125) over night at 10° C. After washing the plates 3 times with 50 μl PBS 0.05% Tween the plates were blocked with 50 μl Smart Block® (Candor 113500) for 1 h at 20° C. and washed again 3 times as described.
Subsequently, 20 μl of pre-mixed antibody solution was added to the plates and incubate for 18 h at 10° C. […] The total concentration of the added antibody solution was 0.25 μg/ml. During the incubation time the antibodies bound to the plates in a competitive manner as they compete for the same epitope on the human Sema3A protein.
After subsequent washing with 50 μl PBS 0.05% Tween for 3 times, 20 μl of a Streptavidin-HRP solution (R&D Systems, DY998, 1:200 in PBS 0.05% Tween 10% Smart Block) were added and incubated for 1 h and 20° C. followed by subsequent washing 3 times with 50 μl PBS 0.05% Tween and addition of 20 μl Amplex Red solution (Invitrogen A12222, 1:1000 in NaP-buffer 50 mM pH7.6 with 1:10000 of 30% H2O2). After a final incubation for 20 min at 20° C. the signal was determined using an emission wavelength of 595 nm and excitation of 530 nm.

The target in test [4] is T2, Human Semaphorin3A-Sema Domain, TPP-19068 (human, UniProt Q14563 21-569).
T2 construct: produced inhouse in HEK293-6E; also called human monovalent Sema3A domain
T2 sequence: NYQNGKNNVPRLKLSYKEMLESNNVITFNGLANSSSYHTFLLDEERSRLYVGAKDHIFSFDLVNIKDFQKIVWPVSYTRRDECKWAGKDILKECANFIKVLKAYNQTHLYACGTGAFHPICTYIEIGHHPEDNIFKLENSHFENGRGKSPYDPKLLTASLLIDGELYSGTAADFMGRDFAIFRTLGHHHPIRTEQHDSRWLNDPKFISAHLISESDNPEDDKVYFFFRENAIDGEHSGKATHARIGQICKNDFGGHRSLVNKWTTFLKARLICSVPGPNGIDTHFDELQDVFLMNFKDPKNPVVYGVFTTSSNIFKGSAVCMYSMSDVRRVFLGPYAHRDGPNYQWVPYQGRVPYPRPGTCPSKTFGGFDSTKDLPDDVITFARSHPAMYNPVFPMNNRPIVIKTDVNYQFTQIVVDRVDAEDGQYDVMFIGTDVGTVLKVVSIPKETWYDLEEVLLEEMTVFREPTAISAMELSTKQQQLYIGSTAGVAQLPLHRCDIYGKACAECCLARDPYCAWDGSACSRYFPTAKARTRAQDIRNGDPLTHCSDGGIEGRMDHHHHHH
In words: SPR, captured antibody, Sema3A domain analyte. In a few lines: (§1)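 Kinetics fitted to a 1:1 Langmuir model after double referencing; glycine pH 2.0 regeneration. Sema3A domain analytes (several species) ran at […]-3.125 nM multi-cycle or single 100 nM; Fc-tagged Sema3A at 1.56-200 nM over Fab-captured antibody, otherwise Fc capture. Buffer HBS P+ plus 300 mM NaCl, CaCl₂, MgCl₂, BSA, 25° C.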

Test [5] concerns the target T3, Cyno Semaphorin3A-Sema Domain, TPP-19122 (cynomolgus (Macaca fascicularis), UniProt Q63548 21-569 (rat entry), limits assumed).
T3 construct: produced inhouse
T3 chain: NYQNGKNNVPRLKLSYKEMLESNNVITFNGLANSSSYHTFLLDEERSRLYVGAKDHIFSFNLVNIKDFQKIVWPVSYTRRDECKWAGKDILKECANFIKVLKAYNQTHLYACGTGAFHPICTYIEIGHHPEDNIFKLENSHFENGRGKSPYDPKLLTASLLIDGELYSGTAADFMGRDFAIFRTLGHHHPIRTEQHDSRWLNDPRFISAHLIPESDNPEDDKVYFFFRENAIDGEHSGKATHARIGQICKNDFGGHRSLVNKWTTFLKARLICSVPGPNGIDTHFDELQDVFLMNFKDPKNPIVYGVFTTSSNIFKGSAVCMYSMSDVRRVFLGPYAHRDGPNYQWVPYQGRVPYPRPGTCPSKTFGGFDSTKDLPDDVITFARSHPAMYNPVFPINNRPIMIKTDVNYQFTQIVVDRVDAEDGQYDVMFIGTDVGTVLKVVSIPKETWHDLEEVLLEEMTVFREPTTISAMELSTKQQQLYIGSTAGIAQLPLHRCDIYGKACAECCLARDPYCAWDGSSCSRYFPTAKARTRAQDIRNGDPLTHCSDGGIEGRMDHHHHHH
Nature of the test: SPR, captured antibody, Sema3A domain analyte. In a few lines:
as §1
(In general: SPR reads the build-up and loss of mass on a sensor chip optically.)

T1 sequence (chain, as listed by the source limits assumed): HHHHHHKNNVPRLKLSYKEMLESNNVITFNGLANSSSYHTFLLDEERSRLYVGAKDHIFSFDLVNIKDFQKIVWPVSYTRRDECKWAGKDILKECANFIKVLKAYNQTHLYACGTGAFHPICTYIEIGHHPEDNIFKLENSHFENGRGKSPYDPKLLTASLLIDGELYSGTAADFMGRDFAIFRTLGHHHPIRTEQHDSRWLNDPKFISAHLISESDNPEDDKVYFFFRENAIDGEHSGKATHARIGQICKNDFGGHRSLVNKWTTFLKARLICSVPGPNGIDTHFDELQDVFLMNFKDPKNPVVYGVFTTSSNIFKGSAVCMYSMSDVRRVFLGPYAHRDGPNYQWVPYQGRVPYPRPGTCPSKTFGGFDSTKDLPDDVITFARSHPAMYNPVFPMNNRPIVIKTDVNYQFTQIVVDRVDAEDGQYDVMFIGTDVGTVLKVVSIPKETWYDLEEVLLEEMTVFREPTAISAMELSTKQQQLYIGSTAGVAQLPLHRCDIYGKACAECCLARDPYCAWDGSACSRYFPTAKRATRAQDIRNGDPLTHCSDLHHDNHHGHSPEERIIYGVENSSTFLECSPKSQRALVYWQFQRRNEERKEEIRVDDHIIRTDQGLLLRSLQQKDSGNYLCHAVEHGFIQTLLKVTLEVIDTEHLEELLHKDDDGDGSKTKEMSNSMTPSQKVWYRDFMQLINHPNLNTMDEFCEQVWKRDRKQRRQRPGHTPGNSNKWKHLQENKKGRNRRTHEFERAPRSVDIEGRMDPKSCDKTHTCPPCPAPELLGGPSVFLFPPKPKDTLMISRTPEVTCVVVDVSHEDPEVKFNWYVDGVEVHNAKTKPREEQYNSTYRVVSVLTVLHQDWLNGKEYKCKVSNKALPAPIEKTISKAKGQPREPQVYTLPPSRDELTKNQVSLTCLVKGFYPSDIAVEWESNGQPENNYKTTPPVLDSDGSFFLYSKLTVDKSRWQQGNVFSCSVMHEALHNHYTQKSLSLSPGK

B1: TPP-23374 (antibody, human IgG4 S228P, lambda, V domains shown)
VH: EVQLLESGGGLVQPGGSLRLSCAASGFTFYSYAMSWVRQAPGKGLEWVSAIGYGGDTYYADSVKGRFTISRDNSKNTLYLQMNSLRAEDTAVYYCARRDDYTSRDAFDYWGQGTLVTVSS
VL: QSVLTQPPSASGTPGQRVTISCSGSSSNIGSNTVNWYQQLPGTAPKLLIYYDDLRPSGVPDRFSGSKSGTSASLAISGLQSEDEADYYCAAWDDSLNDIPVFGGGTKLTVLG
Consider B1, for which the “EC50 [nM], MCM assay” value in test [1] was determined as 0.3 nM. Further, the EC50 in test [2] is 6.1 nM. In test [3], the “VAL norm to TPP-9809 (1 to 1 ratio)” value came out at 0.19 and the “VAL norm to TPP-9809 (1 to 5 ratio)” value was 0.08. In test [4], this molecule registered a Kd of 0.0081 nM. The same molecule showed a Kd in test [5] of less than 0.003 nM.

B2: TPP-23375 (antibody, human IgG4 S228P, lambda, V domains shown)
VH: EVQLLESGGGLVQPGGSLRLSCAASGFTFYSYAMSWVRQAPGKGLEWVSAIGYGGDTYYADSVKGRFTISRDNSKNTLYLQMNSLRAEDTAVYYCARRDDYTSRDAFDYWGQGTLVTVSS
VL: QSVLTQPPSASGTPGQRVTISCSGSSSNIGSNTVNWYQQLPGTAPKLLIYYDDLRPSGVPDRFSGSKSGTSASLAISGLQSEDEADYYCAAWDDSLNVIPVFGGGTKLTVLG
On to B2, for which the “EC50 [nM], MCM assay” value in test [1] came out at 1.03 nM. Besides, the response in test [2] was half-maximal at 7.7 nM (EC50). For the same molecule, in test [3], the “VAL norm to TPP-9809 (1 to 1 ratio)” value was determined as 0.3 and the “VAL norm to TPP-9809 (1 to 5 ratio)” value turned out to be 0.16. The molecule also returned an equilibrium dissociation constant (Kd) in test [4] of 0.053 nM. Besides, binding in test [5] was put at a Kd of 0.045 nM.

A word on the EC50: it is the midpoint of the concentration-response curve. A lower EC50 goes with greater potency. As usually defined, the Kd is the constant that tells how readily two partners part at equilibrium. Read a low Kd as higher affinity.
